From US10202584B2, “Red-shifted luciferase-luciferin pairs for enhanced bioluminescence” (The Regents of the University of California, priority 2016, dated 2019) come the findings set out here.

What all share (assay): purified protein, by the assay type
Details in all cases: other: apparent, 100 pM enzyme, substrate 0.78 to 50 μM, assay buffer pH 6.0, mean ± s.d., n = 3, 37.0 °C

Series [1] deals with O=c1c(Cc2ccccc2)nc2c(-c3ccccc3)[nH]c(-c3ccccc3)cn1-2.
Protocol: (§1) The final concentrations of all enzymes were 100 pM. Substrate concentrations varied from 0.78 to 50 μM, and peak bioluminescence intensities at individual substrate concentrations were used to fit the Michaelis-Menten equation. Data are shown as mean and s.d. of three independent experiments.
(§2) DH10B cells containing corresponding pBAD plasmids were grown in 5 mL LB starter cultures containing ampicillin (100 μg/mL) at 37° C. and 250 rpm overnight. Each saturated overnight culture was diluted 100-fold into 2YT media containing the appropriate antibiotics and grown under the same conditions. When OD600 reached 0.7-0.9, the expression culture was induced with L-arabinose (0.2%, w/v %) and incubated at room temperature with shaking at 250 rpm for another 16 h. Cells were harvested by centrifugation at 4700 rpm for 15 min and lysed by sonication. The resulting cell lysate was clarified by centrifugation at 18,000 rpm for 30 min at 4° C. The supernatant was incubated with Ni-NTA agarose beads (Pierce) at 4° C. for 2 h. Agarose beads loaded to a plastic column were sequentially washed with 10 mL of wash buffer 1 (pH 8.0, 50 mM Tris HCl, 20 mM Imidazole, 300 mM NaCl, 1 mM DTT) and 10 mL of wash buffer 2 (pH 8.0, 50 mM Tris HCl, 50 mM Imidazole, 300 mM NaCl, 1 mM DTT), followed by elution with elution buffer (pH 8.0, 50 mM Tris HCl, 300 mM Imidazole, 300 mM NaCl, 1 mM DTT). Proteins were buffer-exchanged into Tris-HCl (50 mM, pH 7.4) containing 1 mM DTT using Thermo Scientific Snakeskin dialysis tubing, and next concentrated using 3-kDa Amicon Ultra Centrifugal Filters (EMD Millipore). Protein concentrations were determined using the Pierce Coomassie Bradford Protein Assay Kit (Thermo Fisher). For storage, glycerol was added to a final concentration of 50% (v/v) and the resultant mixtures were kept at −20° C.
(§3) A Synergy Mx Microplate Reader (BioTek) was used for all in vitro bioluminescence characterizations. For kinetics measurements, no emission filter or monochromator was used. […]
In series [2] the test system is O=c1c(Cc2ccccc2)nc2c([Se]c3ccccc3)[nH]c(-c3ccccc3)cn1-2.
Protocol: as §1, §2, §3
The subject of series [3] is O=c1c(Cc2ccco2)nc2c(Cc3ccccc3)[nH]c(-c3ccccc3)cn1-2.
Protocol: as §1, §2, §3

As for “NanoLuc luciferase (Oplophorus gracihrostris-derived, parent, SEQ ID NO: 1) (Oplophorus gracilirostris; A31E/A60N/A81I/F95D/I117V/K70R/L54V/L99Q/M102K/N193R/P142E/Q151K/Q38R/Q45L/V71I/Y165I)”, the Km in series [1] came out at 5.3 ± 0.2 µM; in series [2], 17.8 ± 1.0 µM; in series [3], 11.5 ± 0.6 µM.
